Molecular target: mouse alpha (2) macroglobulin receptor (mouse, UniProt Q91ZX7 20-4545)
Assay: cell-based or functional assay

mouse alpha (2) macroglobulin receptor, sequence (Q91ZX7 other isoform, or with tags, fused parts or gaps limits assumed): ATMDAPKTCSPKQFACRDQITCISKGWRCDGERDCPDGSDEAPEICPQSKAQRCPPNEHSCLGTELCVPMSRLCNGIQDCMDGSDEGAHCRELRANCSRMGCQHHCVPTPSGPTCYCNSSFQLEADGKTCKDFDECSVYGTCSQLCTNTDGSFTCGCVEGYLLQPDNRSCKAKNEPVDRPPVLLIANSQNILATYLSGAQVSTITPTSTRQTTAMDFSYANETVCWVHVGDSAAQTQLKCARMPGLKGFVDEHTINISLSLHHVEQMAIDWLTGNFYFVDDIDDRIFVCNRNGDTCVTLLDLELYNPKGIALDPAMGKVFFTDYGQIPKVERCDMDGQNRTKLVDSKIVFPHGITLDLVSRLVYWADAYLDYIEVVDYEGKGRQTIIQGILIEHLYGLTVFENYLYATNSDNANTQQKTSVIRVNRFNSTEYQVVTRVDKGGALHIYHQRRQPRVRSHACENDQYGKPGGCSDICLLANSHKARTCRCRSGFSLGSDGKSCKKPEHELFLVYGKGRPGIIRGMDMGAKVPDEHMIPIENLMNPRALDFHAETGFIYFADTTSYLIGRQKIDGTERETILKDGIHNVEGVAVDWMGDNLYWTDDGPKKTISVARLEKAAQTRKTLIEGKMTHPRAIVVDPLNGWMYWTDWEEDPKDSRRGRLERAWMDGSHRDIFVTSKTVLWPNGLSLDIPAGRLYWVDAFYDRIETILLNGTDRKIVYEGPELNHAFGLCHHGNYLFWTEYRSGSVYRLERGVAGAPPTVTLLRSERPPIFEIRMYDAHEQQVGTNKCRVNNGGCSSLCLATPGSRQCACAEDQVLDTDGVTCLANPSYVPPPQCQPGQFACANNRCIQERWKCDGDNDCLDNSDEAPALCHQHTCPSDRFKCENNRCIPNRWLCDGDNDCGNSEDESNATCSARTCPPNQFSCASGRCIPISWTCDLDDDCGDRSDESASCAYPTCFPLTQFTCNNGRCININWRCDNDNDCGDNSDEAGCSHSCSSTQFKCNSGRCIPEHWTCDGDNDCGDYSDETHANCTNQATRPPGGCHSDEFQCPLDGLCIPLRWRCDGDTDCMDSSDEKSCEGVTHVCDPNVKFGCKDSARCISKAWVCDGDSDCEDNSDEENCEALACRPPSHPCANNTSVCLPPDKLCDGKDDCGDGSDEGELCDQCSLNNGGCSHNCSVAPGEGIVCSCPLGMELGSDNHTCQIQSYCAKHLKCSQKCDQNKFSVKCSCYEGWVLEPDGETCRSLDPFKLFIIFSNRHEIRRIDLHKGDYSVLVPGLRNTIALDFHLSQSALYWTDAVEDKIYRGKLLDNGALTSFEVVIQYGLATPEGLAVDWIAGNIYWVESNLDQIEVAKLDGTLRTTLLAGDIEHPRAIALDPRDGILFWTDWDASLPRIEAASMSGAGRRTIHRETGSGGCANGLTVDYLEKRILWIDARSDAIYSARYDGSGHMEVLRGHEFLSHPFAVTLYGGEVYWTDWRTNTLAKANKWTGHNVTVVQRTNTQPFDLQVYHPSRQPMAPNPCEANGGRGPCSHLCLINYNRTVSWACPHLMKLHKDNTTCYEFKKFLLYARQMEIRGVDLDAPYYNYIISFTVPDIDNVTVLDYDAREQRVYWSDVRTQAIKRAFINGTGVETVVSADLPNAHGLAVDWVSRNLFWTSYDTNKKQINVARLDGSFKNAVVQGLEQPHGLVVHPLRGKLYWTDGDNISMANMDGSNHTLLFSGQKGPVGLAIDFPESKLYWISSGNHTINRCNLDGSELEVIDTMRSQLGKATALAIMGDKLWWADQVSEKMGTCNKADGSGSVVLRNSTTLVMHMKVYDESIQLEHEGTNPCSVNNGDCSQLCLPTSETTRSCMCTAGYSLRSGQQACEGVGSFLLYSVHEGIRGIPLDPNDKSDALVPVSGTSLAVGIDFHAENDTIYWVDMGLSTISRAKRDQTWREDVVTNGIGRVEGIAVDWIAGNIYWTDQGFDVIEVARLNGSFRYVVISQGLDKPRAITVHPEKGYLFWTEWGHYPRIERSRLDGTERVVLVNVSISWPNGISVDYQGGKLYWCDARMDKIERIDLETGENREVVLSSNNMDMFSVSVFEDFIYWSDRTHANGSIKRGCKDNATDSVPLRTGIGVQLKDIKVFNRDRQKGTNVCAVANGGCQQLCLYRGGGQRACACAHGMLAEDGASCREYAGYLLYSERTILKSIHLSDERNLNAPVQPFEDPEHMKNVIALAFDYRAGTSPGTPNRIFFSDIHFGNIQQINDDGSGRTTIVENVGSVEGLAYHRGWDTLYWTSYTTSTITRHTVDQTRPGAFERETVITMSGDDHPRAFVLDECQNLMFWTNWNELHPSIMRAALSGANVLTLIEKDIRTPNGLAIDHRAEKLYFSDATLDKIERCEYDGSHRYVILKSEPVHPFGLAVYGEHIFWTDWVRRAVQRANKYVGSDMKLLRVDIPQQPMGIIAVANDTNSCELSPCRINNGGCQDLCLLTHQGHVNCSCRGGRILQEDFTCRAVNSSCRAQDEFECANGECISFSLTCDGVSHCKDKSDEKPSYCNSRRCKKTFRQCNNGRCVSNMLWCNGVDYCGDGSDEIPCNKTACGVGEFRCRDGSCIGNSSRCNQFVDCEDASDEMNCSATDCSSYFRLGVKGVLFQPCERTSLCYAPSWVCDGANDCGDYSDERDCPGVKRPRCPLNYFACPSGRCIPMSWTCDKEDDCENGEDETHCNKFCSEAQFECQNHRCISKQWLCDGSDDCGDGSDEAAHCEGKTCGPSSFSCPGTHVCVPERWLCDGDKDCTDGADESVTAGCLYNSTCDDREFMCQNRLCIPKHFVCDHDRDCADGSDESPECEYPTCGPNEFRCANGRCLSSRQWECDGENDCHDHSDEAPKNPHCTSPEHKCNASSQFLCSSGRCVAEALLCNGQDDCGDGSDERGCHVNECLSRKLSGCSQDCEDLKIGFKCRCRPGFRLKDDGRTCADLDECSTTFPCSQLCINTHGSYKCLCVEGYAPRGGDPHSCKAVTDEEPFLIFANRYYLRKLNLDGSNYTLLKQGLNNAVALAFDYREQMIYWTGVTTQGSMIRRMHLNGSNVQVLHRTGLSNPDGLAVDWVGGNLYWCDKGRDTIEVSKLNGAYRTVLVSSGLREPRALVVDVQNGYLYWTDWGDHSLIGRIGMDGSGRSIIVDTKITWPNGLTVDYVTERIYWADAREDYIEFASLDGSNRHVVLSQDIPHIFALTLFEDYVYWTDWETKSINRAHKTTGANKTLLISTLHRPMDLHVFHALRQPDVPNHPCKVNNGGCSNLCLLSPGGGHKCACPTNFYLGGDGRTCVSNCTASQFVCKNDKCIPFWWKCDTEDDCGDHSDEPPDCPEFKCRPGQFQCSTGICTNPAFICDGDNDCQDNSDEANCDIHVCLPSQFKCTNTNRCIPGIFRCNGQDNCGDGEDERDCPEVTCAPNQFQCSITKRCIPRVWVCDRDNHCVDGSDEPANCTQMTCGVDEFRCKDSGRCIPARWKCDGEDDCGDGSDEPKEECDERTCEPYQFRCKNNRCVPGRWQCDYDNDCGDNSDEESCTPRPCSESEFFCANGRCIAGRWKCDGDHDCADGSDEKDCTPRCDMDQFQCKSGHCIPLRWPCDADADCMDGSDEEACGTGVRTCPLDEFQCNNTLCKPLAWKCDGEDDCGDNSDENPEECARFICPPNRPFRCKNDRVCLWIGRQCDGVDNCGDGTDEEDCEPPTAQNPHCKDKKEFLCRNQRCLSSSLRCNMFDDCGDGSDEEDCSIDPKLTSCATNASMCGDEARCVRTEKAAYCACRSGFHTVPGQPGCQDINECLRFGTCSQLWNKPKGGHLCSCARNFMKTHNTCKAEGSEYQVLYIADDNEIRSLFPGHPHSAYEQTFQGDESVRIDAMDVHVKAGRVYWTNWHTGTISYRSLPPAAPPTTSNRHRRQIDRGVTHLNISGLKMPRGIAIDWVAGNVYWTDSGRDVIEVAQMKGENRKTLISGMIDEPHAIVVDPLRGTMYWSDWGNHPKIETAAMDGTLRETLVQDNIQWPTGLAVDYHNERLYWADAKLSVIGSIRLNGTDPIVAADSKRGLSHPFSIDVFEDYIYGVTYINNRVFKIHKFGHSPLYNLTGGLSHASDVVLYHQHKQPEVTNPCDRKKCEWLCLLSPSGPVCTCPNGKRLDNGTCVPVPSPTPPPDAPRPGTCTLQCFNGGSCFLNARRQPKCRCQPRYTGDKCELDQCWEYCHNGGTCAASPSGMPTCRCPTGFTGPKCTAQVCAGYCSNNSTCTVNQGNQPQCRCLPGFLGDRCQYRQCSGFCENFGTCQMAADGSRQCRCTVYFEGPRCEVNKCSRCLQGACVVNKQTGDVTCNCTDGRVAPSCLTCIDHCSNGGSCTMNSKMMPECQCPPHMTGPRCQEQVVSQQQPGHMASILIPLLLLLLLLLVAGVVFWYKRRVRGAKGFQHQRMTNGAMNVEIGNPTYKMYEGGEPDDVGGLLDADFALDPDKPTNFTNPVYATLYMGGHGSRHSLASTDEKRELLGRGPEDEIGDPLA

A molar excess of free HSP required to inhibit by 50% the re-presentation of gp96-chaperoned peptides at a gp96 concentration of 40 µg/ml (RAW264.7 cells) (fold molar excess) of 13 was found for heat shock protein hsp70 (ligand) in this work.

A molar excess of free HSP required to inhibit by 50% the re-presentation of gp96-chaperoned peptides at a gp96 concentration of 40 µg/ml (RAW264.7 cells) (fold molar excess) of 2 was found for heat shock protein hsp90 (ligand) in this work.

B1: heat shock protein gp96 (ligand, UniProt P08113 22-802, looked up)
chain: DDEVDVDGTVEEDLGKSREGSRTDDEVVQREEEAIQLDGLNASQIRELREKSEKFAFQAEVNRMMKLIINSLYKNKEIFLRELISNASDALDKIRLISLTDENALAGNEELTVKIKCDKEKNLLHVTDTGVGMTREELVKNLGTIAKSGTSEFLNKMTEAQEDGQSTSELIGQFGVGFYSAFLVADKVIVTSKHNNDTQHIWESDSNEFSVIADPRGNTLGRGTTITLVLKEEASDYLELDTIKNLVRKYSQFINFPIYVWSSKTETVEEPLEEDEAAKEEKEESDDEAAVEEEEEEKKPKTKKVEKTVWDWELMNDIKPIWQRPSKEVEEDEYKAFYKSFSKESDDPMAYIHFTAEGEVTFKSILFVPTSAPRGLFDEYGSKKSDYIKLYVRRVFITDDFHDMMPKYLNFVKGVVDSDDLPLNVSRETLQQHKLLKVIRKKLVRKTLDMIKKIADEKYNDTFWKEFGTNIKLGVIEDHSNRTRLAKLLRFQSSHHSTDITSLDQYVERMKEKQDKIYFMAGSSRKEAESSPFVERLLKKGYEVIYLTEPVDEYCIQALPEFDGKRFQNVAKEGVKFDESEKTKESREATEKEFEPLLNWMKDKALKDKIEKAVVSQRLTESPCALVASQYGWSGNMERIMKAQAYQTGKDISTNYYASQKKTFEINPRHPLIRDMLRRIKEDEDDKTVMDLAVVLFETATLRSGYLLPDTKAYGDRIERMLRLSLNIDPEAQVEEEPEEEPEDTSEDAEDSEQDEGEEMDAGTEEEEEETEKESTEKDEL
In the case of B1, the “molar excess of free HSP required to inhibit by 50% the re-presentation of gp96-chaperoned peptides at a gp96 concentration of 40 µg/ml (RAW264.7 cells)” value is reported as roughly 6 fold molar excess.

— patent US20040072993A1 (UNIVERSITY OF CONNECTICUT HEALTH CENTER, published 2004)
